Test results as given in US20240318160A1.

What was measured:
Experiment in all cases: TAL and PAL enzyme kinetics
[1] = system: N[C@@H](Cc1ccccc1)C(=O)O; type: biochemical, Arabidopsis thaliana; settings: other: PAL assay (L-Phe), pH 8.5, 30° C.
Method: (§3) A mixture containing 100 mM Tris-HCl (pH 8.5), 1% glycerol, and purified enzyme in a total volume of 50 μl was preincubated for 3 min at 30° C. […] The reactions were terminated by addition of 6N acetic acid (10 μl).
(§4) The kinetic parameters of the recombinant enzymes were determined using HPLC. Reaction mixtures containing 100 mM Tris-HCl (pH 8.5), 1% glycerol, and purified enzyme (0.15 μg for PAL assay and 1 μg for TAL assay) in a 50 μl total volume were preincubated for 3 min at 30° C. […] After 10 min and 20 min incubations for PAL and TAL assay, respectively, at 30° C., the reaction was terminated by addition of 6N acetic acid (10 μl). […] The products were quantified using calibration curves generated using authentic standards. Non-linear hyperbolic regression analyses were conducted using the Excel Solver tool to calculate Km and Vmax values.

[2] = system: N[C@@H](Cc1ccc(O)cc1)C(=O)O; type: biochemical, Sorghum bicolor; settings: other: TAL assay (L-Tyr), pH 8.5, 30° C.
Method: (§1) All substrate solutions were prepared with 0.01 N NaOH to increase the solubility of L-Tyr. A mixture containing 100 mM Tris-HCl (pH 8.5), 1% glycerol, and purified enzyme in a total volume of 50 μl was preincubated for 3 min at 30° C. PAL and TAL reactions were started by addition of 50 μl of 1 mM substrate (L-Phe or L-Tyr, respectively) and were incubated at 30° C. for 20 min unless otherwise noted. The reactions were terminated by addition of 6N acetic acid (10 μl).
(§2) The kinetic parameters of the recombinant enzymes were determined using HPLC. Reaction mixtures containing 100 mM Tris-HCl (pH 8.5), 1% glycerol, and purified enzyme (0.15 μg for PAL assay and 1 μg for TAL assay) in a 50 μl total volume were preincubated for 3 min at 30° C. PAL and TAL reactions were started by addition of 50 μl substrate solution prepared with 0-4 mM L-Phe and 0-2 mM L-Tyr. After 10 min and 20 min incubations for PAL and TAL assay, respectively, at 30° C., the reaction was terminated by addition of 6N acetic acid (10 μl). […] The products were quantified using calibration curves generated using authentic standards. Non-linear hyperbolic regression analyses were conducted using the Excel Solver tool to calculate Km and Vmax values.

[3] = system: N[C@@H](Cc1ccccc1)C(=O)O; type: biochemical, Sorghum bicolor; settings: other: PAL assay (L-Phe), pH 8.5, 30° C.
Method: as §1, §2

[4] = system: N[C@@H](Cc1ccccc1)C(=O)O; type: biochemical, Sorghum bicolor; settings: other: PAL assay (L-Phe), pH 8.5, 30° C.; remark: listed apart in the source
Method: as §4

[5] = system: N[C@@H](Cc1ccc(O)cc1)C(=O)O; type: biochemical, Brachypodium distachyon; settings: other: TAL assay (L-Tyr), pH 8.5, 30° C.
Method: as §1, §2

[6] = system: N[C@@H](Cc1ccccc1)C(=O)O; type: biochemical, Brachypodium distachyon; settings: other: PAL assay (L-Phe), pH 8.5, 30° C.
Method: as §1, §2

[7] = system: N[C@@H](Cc1ccc(O)cc1)C(=O)O; type: biochemical, Arabidopsis thaliana; settings: other: TAL assay (L-Tyr), pH 8.5, 30° C.
Method: as §3, §4

[8] = system: N[C@@H](Cc1ccccc1)C(=O)O; type: biochemical, Brachypodium distachyon; settings: other: PAL assay (L-Phe), pH 8.5, 30° C.; remark: listed apart in the source
Method: as §4

Sequence of Arabidopsis thaliana AtPAL1 variant S114I (as printed in Table 3; AtPAL1^S116I, SEQ ID NO: 260, elsewhere) (Arabidopsis thaliana; S116I) (chain, as listed by the source S114I S116I S116I): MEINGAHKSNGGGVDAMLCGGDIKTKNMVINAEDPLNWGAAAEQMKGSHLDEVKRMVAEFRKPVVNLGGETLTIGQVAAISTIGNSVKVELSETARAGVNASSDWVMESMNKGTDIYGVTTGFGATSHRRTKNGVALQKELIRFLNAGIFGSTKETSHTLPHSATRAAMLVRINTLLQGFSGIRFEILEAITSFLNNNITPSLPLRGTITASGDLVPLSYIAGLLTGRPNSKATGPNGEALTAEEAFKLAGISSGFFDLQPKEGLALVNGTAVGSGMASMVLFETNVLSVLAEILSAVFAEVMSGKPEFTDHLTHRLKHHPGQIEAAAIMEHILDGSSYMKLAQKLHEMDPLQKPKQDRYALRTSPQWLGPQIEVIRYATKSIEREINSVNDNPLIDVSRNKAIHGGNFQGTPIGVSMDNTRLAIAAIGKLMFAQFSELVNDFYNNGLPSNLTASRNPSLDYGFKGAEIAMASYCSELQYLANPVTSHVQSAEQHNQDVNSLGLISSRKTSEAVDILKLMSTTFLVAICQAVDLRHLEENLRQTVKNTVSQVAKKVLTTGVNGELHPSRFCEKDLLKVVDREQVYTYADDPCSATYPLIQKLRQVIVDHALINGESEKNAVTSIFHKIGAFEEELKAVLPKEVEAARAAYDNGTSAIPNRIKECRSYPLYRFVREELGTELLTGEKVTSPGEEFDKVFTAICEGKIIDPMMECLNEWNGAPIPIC
Sequence of Arabidopsis thaliana AtPAL1 variant F144H/S114I (as printed in Table 3; AtPAL1^F144H_S116I, SEQ ID NO: 146, elsewhere) (Arabidopsis thaliana; F144H/S116I) (chain, as listed by the source F144H S114I F144H S116I F144H S116I): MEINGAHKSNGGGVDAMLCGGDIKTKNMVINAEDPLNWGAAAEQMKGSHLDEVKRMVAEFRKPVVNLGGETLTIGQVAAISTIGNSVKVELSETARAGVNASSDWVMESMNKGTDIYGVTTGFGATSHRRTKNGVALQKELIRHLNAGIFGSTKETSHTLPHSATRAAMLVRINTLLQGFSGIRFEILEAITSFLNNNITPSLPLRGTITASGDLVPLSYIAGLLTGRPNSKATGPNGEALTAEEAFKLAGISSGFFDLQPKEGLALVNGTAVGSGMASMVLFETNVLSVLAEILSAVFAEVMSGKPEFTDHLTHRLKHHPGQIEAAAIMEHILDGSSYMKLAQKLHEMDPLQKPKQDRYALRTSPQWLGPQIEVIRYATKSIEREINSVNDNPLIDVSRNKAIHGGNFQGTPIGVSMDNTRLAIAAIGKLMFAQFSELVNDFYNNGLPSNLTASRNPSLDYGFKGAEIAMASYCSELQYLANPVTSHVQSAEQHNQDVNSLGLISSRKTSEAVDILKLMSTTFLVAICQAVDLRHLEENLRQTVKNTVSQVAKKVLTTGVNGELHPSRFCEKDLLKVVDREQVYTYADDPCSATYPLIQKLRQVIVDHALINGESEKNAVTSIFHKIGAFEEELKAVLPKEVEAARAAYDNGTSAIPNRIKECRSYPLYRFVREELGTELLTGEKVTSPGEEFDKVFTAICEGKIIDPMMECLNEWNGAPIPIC
Sequence of Arabidopsis thaliana AtPAL1, wild type, SEQ ID NO: 144 (Arabidopsis thaliana) (chain, as listed by the source): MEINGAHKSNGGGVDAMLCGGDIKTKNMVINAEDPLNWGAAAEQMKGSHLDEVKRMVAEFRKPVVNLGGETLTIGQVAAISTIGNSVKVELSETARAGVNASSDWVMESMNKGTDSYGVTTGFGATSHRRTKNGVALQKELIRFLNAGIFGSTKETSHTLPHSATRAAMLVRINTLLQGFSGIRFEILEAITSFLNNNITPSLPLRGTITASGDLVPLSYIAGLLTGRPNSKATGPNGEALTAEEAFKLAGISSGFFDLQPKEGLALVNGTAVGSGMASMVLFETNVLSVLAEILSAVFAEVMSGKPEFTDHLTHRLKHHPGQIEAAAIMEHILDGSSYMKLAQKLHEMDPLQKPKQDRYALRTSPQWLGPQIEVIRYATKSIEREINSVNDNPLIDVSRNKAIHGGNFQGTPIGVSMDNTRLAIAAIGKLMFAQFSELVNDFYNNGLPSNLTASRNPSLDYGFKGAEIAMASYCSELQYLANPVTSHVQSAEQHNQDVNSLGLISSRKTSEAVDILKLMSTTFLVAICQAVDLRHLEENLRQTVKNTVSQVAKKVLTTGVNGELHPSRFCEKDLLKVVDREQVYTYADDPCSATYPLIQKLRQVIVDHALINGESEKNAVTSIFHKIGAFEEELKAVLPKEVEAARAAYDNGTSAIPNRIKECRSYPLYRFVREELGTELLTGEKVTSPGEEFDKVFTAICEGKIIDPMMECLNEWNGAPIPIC
Sequence of Sorghum bicolor SbPTAL, wild type (Sorghum bicolor) (chain, as listed by the source): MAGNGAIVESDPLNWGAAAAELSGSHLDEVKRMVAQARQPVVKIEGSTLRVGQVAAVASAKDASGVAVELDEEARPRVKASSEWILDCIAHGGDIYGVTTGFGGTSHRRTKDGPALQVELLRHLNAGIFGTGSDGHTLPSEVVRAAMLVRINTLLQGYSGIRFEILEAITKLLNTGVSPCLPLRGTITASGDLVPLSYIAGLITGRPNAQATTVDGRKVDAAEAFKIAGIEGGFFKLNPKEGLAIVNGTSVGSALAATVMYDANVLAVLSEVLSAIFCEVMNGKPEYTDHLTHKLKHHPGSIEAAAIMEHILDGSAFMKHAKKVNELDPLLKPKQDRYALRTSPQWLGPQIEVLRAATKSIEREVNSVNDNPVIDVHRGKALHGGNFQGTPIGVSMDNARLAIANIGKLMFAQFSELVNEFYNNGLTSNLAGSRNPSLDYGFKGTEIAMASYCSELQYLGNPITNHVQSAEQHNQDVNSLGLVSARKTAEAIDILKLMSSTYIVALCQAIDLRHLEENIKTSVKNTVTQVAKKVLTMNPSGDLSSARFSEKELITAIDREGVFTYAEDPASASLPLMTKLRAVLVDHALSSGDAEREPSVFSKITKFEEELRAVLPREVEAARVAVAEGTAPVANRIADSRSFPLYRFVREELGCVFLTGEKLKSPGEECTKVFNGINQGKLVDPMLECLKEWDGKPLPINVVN
Sequence of Brachypodium distachyon BdPTAL, wild type (Brachypodium distachyon) (chain, as listed by the source): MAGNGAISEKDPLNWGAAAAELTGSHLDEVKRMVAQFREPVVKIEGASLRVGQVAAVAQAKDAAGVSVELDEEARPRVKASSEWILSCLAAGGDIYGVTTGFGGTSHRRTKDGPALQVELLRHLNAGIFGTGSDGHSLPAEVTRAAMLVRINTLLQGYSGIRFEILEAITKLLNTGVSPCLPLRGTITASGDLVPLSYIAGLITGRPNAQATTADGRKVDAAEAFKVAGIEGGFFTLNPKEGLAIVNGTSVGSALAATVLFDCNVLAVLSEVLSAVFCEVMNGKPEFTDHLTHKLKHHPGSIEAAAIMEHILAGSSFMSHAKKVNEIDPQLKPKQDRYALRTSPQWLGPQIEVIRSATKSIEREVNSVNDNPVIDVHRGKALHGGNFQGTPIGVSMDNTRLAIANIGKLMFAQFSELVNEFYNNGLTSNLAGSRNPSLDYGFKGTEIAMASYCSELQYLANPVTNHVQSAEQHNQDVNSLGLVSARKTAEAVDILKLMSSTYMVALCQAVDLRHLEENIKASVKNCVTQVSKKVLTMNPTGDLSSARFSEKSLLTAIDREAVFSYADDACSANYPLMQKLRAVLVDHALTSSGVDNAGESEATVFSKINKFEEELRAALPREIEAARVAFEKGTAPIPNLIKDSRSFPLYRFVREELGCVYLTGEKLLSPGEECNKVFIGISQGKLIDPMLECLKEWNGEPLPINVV
Sequence of Arabidopsis thaliana AtPAL1 variant F144H (AtPAL1^F144H), SEQ ID NO: 261 (Arabidopsis thaliana; F144H) (chain, as listed by the source F144H F144H F144H): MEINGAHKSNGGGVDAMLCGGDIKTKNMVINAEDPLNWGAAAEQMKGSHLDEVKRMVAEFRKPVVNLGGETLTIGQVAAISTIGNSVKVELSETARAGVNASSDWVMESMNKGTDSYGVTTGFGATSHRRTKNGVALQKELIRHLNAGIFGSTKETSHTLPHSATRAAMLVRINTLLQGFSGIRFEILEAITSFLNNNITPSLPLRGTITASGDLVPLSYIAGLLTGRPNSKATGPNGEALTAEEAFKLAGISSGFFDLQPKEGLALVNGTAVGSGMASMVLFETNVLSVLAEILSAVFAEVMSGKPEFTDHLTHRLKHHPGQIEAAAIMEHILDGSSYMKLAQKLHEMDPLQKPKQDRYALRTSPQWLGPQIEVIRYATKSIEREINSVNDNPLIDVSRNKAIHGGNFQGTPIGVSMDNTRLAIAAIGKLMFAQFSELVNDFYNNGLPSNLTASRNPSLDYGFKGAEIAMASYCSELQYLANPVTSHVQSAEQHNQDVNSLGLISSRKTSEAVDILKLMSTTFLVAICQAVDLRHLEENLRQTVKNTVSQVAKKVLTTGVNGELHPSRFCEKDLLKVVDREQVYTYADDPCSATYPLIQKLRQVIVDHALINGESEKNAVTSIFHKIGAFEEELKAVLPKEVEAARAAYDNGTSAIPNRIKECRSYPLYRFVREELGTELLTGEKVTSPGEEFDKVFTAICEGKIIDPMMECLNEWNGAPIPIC
Sequence of Brachypodium distachyon BdPTAL variant H123F (BdPTAL^H123F) (Brachypodium distachyon; H123F) (chain, as listed by the source H123F H123F H123F): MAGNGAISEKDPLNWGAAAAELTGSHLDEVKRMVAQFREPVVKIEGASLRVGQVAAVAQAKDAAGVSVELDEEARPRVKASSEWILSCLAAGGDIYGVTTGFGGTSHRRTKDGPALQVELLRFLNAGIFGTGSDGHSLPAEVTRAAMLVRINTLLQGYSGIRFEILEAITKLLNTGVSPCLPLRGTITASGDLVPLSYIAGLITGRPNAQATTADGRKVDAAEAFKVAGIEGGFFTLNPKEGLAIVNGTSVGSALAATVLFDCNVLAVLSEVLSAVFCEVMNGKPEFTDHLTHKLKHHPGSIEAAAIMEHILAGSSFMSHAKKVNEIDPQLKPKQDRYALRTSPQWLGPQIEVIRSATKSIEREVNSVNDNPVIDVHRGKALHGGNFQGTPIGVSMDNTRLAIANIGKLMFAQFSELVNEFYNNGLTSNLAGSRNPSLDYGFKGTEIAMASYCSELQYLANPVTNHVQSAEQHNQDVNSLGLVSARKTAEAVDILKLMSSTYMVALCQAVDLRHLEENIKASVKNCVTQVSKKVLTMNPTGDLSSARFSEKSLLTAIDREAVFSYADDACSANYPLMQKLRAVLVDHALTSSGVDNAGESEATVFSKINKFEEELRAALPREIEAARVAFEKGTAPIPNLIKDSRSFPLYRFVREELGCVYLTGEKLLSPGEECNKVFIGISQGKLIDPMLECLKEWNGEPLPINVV

“Arabidopsis thaliana AtPAL1, wild type, SEQ ID NO: 144 (Arabidopsis thaliana)” showed a Km [1] of 52.2 ± 3.1 µM, a kcat [1] of 1.42 ± 0.07 s⁻¹ and a kcat/Km [1] of 27310 ± 850 M⁻¹ s⁻¹.

Work on “Sorghum bicolor SbPTAL variant H123F (SbPTAL^H123F) (Sorghum bicolor; H123F)” yielded a Km [2] of 750.7 ± 36.8 µM, a kcat [2] of 0.03 ± 0.00 s⁻¹ and a kcat/Km [2] of 40 ± 0 M⁻¹ s⁻¹. It also gave a Km [3] of 3.8 ± 2.0 µM, a kcat [3] of 0.10 ± 0.00 s⁻¹ and a kcat/Km [3] of 30970 ± 13700 M⁻¹ s⁻¹.

Substance “Sorghum bicolor SbPTAL, wild type (Sorghum bicolor)” has a Km [4] of 150.1 ± 14.4 µM, a kcat [4] of 0.69 ± 0.01 s⁻¹ and a kcat/Km [4] of 4630 ± 490 M⁻¹ s⁻¹.

“Arabidopsis thaliana AtPAL1 variant F144H (AtPAL1^F144H), SEQ ID NO: 261 (Arabidopsis thaliana; F144H)” showed a Km [1] of 1198.9 ± 21.1 µM, a kcat [1] of 1.58 ± 0.04 s⁻¹ and a kcat/Km [1] of 1320 ± 20 M⁻¹ s⁻¹.

Work on “Brachypodium distachyon BdPTAL variant H123F (BdPTAL^H123F) (Brachypodium distachyon; H123F)” yielded a Km [5] of 765.2 ± 65.8 µM, a kcat [5] of 0.03 ± 0.00 s⁻¹ and a kcat/Km [5] of 40 ± 0 M⁻¹ s⁻¹. It also gave a Km [6] of 6.0 ± 1.4 µM, a kcat [6] of 0.17 ± 0.00 s⁻¹ and a kcat/Km [6] of 29920 ± 6750 M⁻¹ s⁻¹.

“Arabidopsis thaliana AtPAL1 variant F144H/S114I (as printed in Table 3; AtPAL1^F144H_S116I, SEQ ID NO: 146, elsewhere) (Arabidopsis thaliana; F144H/S116I)” was tested, and the Km [1] was 87.3 ± 2.9 µM, the kcat [1] was 0.88 ± 0.01 s⁻¹ and the kcat/Km [1] was 10070 ± 440 M⁻¹ s⁻¹.

Substance “Arabidopsis thaliana AtPAL1 variant S114I (as printed in Table 3; AtPAL1^S116I, SEQ ID NO: 260, elsewhere) (Arabidopsis thaliana; S116I)” has a Km [7] of 515.4 ± 54.3 µM, a kcat [7] of 0.02 ± 0.00 s⁻¹ and a kcat/Km [7] of 40 ± 0 M⁻¹ s⁻¹. It also gave a Km [1] of 10.1 ± 1.9 µM, a kcat [1] of 0.23 ± 0.00 s⁻¹ and a kcat/Km [1] of 23710 ± 4630 M⁻¹ s⁻¹.

With “Brachypodium distachyon BdPTAL, wild type (Brachypodium distachyon)” the Km [8] was 216.6 ± 10.3 µM, the kcat [8] was 1.05 ± 0.05 s⁻¹ and the kcat/Km [8] was 4840 ± 110 M⁻¹ s⁻¹.
